The values that follow come from patent publication US10272135B2, “Apolipoprotein O and fragments thereof for inducing apoptosis in a cancerous cell” (INSERM (INSTITUT NATIONAL DE LA SANTÉ ET DE LA RECHERCHE …, priority 2014, dated 2019).

In the assay the test system is cyclophilin-D and/or ANT. Put plainly: Blue Native Page and GST pull-down with heart mitochondria protein extracts. Particulars: BN-PAGE and GST-ApoO pull-down (FIGS. 5A and B). In kind it is binding, mouse. The text has this:
(A) One-dimensional BN-PAGE gel analysis of mitochondrial protein complexes from mouse heart. (1): Coomassie blue staining of the 4-13% polyacrylamide one-dimensional gradient blue native gel. (2): Ponceau S staining of the transferred PVDF membrane. ApoO, ANT and CypD were detected using enhanced chemiluminescence of the transferred PVDF membranes with ApoO, ANT or CypD antibodies respectively. ApoO, ANT and CypD were detected in the same complex (black rectangle).
(B) Western blot analysis of ApoO-GST pull-down. Upper panel: Ponceau S staining of the transferred membrane used to control loading and transfer. […]
After ethical committee approval, all patients in this study gave written consent for sample collection and molecular analysis prior to inclusion. […] All ApoO sequences within the expression vectors were verified by DNA double strand sequencing using ABI PRISM®BigDye™ Terminator version 3.1 Ready reaction cycle sequencing kit (Life Technologies SAS, Villebon sur Yvette) and loaded on an ABI 3130XL DNA sequencing instrument (Life Technologies SAS, Villebon sur Yvette). […]

B1: ApoO: 198-amino acid apolipoprotein, SEQ ID NO: 1; tested by overexpression from expression vectors or transgene (protein, listed as Homo sapiens)
chain: MFKVIQRSVGPASLSLLTFKVYAAPKKDSPPKNSVKVDELSLYSVPEGQSKYVEEARSQLEESISQLRHYCEPYTTWCQETYSQTKPKMQSLVQWGLDSYDYLQNAPPGFFPRLGVIGFAGLIGLLLARGSKIKKLVYPPGFMGLAASLYYPQQAIVFAQVSGERLYDWGLRGYIVIEDLWKENFQKPGNVKNSPGTK
With B1, the “interaction with cyclophilin-D and/or ANT” value is reported as “interaction”.
